According to paper doi:10.1101/2024.04.26.591305 (2024):

molecular target: α-skeletal muscle actin filaments (rabbit) (rabbit, UniProt P68135 1-377)

| Kd [µM] | Binder |
| --- | --- |
| 13.2 | U20 (msfGFPΔC10-Utr28-222) (domain or fragment) EHNDVQKKTFTKWINARFSKSGKPPINDMFTDLKDGRKLLDLLEGLTGTSLPKERGSTRVHALNNVNRVLQVLHQNNVELVNIGGTDIVDGNHKLTLGLLWSIILHWQVKDVMKDVMSDLQQTNSEKILLSWVRQTTRPYSQVNVLNFTTSWTDGLAFNAVLHRHKPDLFSWDKVVKMSPIERLEHAFSKAQTYL |
| 11.3 | MGVADLIKKFESI (domain or fragment) [L22 (LifeactΔC4-msfGFPΔN7)] |
| 4.5 | VADLIKKFESISKEE (domain or fragment) [L45 (msfGFPΔC9-LifeactΔN2)] |
